Experiment [1] has as its target biotinylated soluble leucine-zippered HLA-DO with αP10aA (bio-szDOv), beta chain with C-terminal Avitag (human) (UniProt P06340). In words: BLI. In general terms: BLI is a label-free optical method that tracks binding on a fibre tip over time.
In experiment [2] the target is soluble HLA-DM (sDM), wild type (human, UniProt P28067;P28068). In words: enzyme inhibition kinetics.

For “sDM mutant αR98E,R194E (from UniProt P28067;P28068) (complex)”, the binding affinity relative to the wild type (fold of the wild-type affinity) in experiment [1] was determined as 0.0025.

B1: soluble HLA-DO Ig-fusion protein (sDO-Fc) (Fc fusion)
chain 1: TKADHMGSYGPAFYQSYGASGQFTHEFDEEQLFSVDLKKSEAVWRLPEFGDFARFDPQGGLAGIAAIKAHLDILVERSNRSRAINVPPRVTVLPKSRVELGQPNILICIVDNIFPPVINITWLRNGQTVTEGVAQTSFYSQPDHLFRKFHYLPFVPSAEDVYDCQVEHWGLDAPLLRHWELQVPIPPPDAME
chain 2: TDSPEDFVIQAKADCYFTNGTEKVQFVVRFIFNLEEYVRFDSDVGMFVALTKLGQPDAEQWNSRLDLLERSRQAVDGVCRHNYRLGAPFTVGRKVQPEVTVYPERTPLLHQHNLLHCSVTGFYPGDIKIKWFLNGQEERAGVMSTGPIRNGDWTFQTVVMLEMTPELGHVYTCLVDHSSLLSPVSVEWRAQSEYSWRK
Turning to B1, the Ki in experiment [2] was found to be 290 ± 20 nM.

The term Ki denotes the dissociation constant of the complex between target and ligand, obtained from inhibition or displacement. Read a high Ki as a looser hold on the target.

(Values after paper PMC3537886 (Nature structural & molecular biology, 2012).)
